Assay [1] has as its target cynomolgus monkey PCSK9 (cynomolgus monkey). Description: KinExA solution equilibrium. (In general: A kinetic exclusion assay measures how much of one partner remains free in solution.)
Assay [2] has the same target. Description: BIAcore, antibody immobilised, pH 7.4.
Assay [3] concerns the target human PCSK9 (proprotein convertase subtilisin kexin type 9) (human) (UniProt Q8NBP7). The assay can be described thus: BIAcore solution equilibrium, pH 5.5.
Assay [4] shares this target. The assay can be described thus: BIAcore solution equilibrium, pH 6.0. On the technique in general: In SPR one partner is held on a chip, and binding of the other changes the refractive index at the surface.
The target is the same in assay [5]. The assay can be described thus: BIAcore solution equilibrium, pH 7.4.
Assay [6] has as its target cynomolgus monkey PCSK9 (cynomolgus monkey). The assay can be described thus: BIAcore solution equilibrium, column To Cyno PCSK9.
A further assay has as its target 31H4, anti-PCSK9 huIgG4. Description: KinExA solution equilibrium, % free 31H4.1 against [cPCSK9]; curve with diamonds; 10 pM or 100 pM 31H4 series not labelled.

31H4, anti-PCSK9 huIgG4, sequence (heavy, as listed by the source, chain 1 of 2): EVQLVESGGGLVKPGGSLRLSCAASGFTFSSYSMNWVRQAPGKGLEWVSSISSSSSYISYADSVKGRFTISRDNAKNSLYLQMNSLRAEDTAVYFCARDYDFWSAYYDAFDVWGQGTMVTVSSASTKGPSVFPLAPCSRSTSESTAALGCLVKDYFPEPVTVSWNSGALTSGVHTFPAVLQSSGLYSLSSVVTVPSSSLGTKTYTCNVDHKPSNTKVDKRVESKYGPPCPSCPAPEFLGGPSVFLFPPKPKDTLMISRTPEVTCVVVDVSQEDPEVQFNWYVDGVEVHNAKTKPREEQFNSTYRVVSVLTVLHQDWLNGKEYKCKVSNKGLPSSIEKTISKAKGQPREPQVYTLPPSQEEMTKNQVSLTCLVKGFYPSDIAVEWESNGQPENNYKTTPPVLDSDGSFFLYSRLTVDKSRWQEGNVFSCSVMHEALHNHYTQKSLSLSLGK
31H4, anti-PCSK9 huIgG4, sequence (light, as listed by the source, chain 2 of 2): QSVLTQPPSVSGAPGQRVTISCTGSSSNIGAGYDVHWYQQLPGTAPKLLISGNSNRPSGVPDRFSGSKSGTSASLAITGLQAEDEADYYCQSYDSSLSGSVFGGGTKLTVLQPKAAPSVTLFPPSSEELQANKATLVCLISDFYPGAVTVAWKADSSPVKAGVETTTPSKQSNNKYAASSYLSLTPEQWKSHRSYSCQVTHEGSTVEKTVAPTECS

With 31H4, anti-PCSK9 huIgG4 (antibody), the Kd – broadly, the free concentration of one partner at which half of the binding sites on the other are occupied at equilibrium, for simple one-to-one binding – in assay [1] stood at 2 pM; in assay [2], 190 pM.
Consider AMG145 (antibody), for which the dissociation constant (Kd) in assay [3] was found to be 28 pM; in assay [4], 6 pM; in assay [5], 19 pM; in assay [6] it was 8 pM.
In the case of “cynomolgus monkey PCSK9 (from UniProt A0A7N9D9N8 150-747) (enzyme)”, in the assay with 31H4, anti-PCSK9 huIgG4, the IC50 (read off the curve) was 10 pM.

Values taken from patent US20130072665A1.
